Measurements: patent US20220356223A1

Molecular target: human high-affinity IL2 receptor (IL2Rαβγ) (human) (UniProt P01589)
Assay: cell-based or functional assay

UniProt P01589, sequence (P01589 22-272, chain 1 of 3): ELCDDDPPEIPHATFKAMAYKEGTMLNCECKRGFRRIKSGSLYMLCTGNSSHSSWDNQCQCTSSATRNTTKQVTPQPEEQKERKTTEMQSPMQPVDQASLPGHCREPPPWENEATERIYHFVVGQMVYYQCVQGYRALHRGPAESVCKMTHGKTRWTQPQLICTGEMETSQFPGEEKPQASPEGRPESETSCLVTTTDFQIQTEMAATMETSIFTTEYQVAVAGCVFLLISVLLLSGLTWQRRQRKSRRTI
UniProt P01589, sequence (P14784 27-551, chain 2 of 3, further chain): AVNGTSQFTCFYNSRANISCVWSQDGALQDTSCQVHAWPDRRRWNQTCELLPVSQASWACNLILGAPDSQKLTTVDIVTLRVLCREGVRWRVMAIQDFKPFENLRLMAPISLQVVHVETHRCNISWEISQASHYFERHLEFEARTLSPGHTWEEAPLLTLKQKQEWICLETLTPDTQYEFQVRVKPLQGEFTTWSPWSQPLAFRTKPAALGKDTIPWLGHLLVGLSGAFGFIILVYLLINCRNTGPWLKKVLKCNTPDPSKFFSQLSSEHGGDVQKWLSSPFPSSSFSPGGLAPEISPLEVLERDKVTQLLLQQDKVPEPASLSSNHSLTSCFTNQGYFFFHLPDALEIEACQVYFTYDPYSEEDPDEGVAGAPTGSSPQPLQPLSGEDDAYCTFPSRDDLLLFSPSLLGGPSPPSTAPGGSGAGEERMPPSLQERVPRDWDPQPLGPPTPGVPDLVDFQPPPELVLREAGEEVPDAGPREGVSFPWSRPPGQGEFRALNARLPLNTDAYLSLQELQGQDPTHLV
UniProt P01589, sequence (P31785 23-369, chain 3 of 3, further chain): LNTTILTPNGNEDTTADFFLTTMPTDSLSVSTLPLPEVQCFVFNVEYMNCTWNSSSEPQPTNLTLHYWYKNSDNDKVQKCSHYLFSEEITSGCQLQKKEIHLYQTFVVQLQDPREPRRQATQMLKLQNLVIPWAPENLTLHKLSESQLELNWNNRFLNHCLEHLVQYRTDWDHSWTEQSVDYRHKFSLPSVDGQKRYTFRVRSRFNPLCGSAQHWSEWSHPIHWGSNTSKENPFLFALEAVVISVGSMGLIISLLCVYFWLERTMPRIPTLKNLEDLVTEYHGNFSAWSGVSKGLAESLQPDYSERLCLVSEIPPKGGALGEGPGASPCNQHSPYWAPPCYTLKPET

## hAlb-hIL2 (ligand)
  EC50, STAT5 phosphorylation, human CD4+CD25+ Treg cells (%-supernatant): 0.0311
